According to paper PMC4227725 (Journal of the American Chemical Society, 2014):

How the values were obtained:
HeLa cells [1] = conditions: 2.5 μM, 30 min, 37 °C, heparin washes, phenol red-free medium
HeLa cells [2] = conditions: Tat polymer 2.5 μM, chymotrypsin 1 μM, up to 14 h

Substance | fluorescence in live cells, Z-stack 1 μm slices (in words) (HeLa cells [1]) | cell entry after incubation with chymotrypsin, time course (in words) (HeLa cells [2])
GSGSG [GSGSG polymer] | no fluorescence was seen | –
YGRKKRRQRRR [Tat polymer] | – | retains the ability to enter cells
